In publication PMC3462190, “A Peptidic Unconjugated GRP78/BiP Ligand Modulates the Unfolded Protein Response and Induces Prostate Cancer Cell Death” (PLoS ONE, 2012):
Where no end group is shown, it is not given here.

B1: Bag-1 peptide: internal sequence of 68 amino acids of Bag-1 (Bag1-L 202–269), HA-tagged, expressed from pcDNA3 (peptide)
chain: TPLSALGIQDGCRVMLIGKKNSPQEEVELKKLKHLEKSVEKIADQLEELNKELTGIQQGFLPKDLQAE
modifications: also: HA tag, end not given here

Legend:
Format in all cases: cell-based
PC3 cells = assay: Clonogenic assay; conditions: 19-mer expressing vector vs vector control; at least three experiments
Protocol: (§1) Figure 6 Selectivity of action of the Bag-1 peptide. A Amino acid sequence of the 19mer peptide and its deletion mutants. B GST pull-down assay performed incubating 400 µg of 22Rv.1 cell lysate and 25 µg of GST-fused deletion mutants of the 19mer peptide. After the pull-down experiment, Western blots were carried out with anti-GRP78/BiP and GST antibodies. C. Fluorescence polarization (FP) assays with a 10 nM FITC-labeled 7-mer Bag-1 peptide and dilutions of the GST-fused substrate binding domain of GRP78 in 60 µl of Tris-GSH buffer (50 mM Tris, 10 mM reduced glutathione and 0.1% BSA, pH 8.0). Triplicate samples were measured after 5 h of incubation at room temperature with an Infinite F-200 reader (Tecan) with excitation at 490 nm and emission at 535 nm. Binding constants were determined from three independent experiments using non-linear regression in Sigma Plot 10.0. D. Competition assays with a complex of 10 nM of FITC-labeled Bag-1 7-mer peptide and 0.75 mg/ml GST-fused GRP78 substrate binding domain was measured against a dilution series from 100 µM to 0.1 nM of wild-type Bag-1 7-mer peptide (filled line) or triple mutant peptide (dotted line) in 40 µl of Tris-GSH buffer. FITC-peptide and the FITC-peptide-protein complex were used as controls. Fluorescence polarization was determined as described above and IC50 values were determined in Sigma Plot. E. Clonogenic assay in 22Rv.1 cells with pcDNA3 based vectors coding for the N-terminal Bag-1 peptide (positive control), the 19mer and the 19mer mutant fragments as well as the empty expression vector (negative control). Cells were transfected with the indicated constructs and selected in medium containing neomycin. The colonies were stained and quantified. Shown as bar chats are the mean ± SEM of at least three independent experiments with three different plasmid preparations. (*p<0.05). F. In vivo luciferase refolding assay was performed in HEK-293 cells transfected at 70% confluency with 2 µg β-actin-fire fly luciferase construct, 3 µg pcDNA3 empty vector as control or pCMV6-GRP78, 6 µg pcDNA3.1-HA-19-mer or 19-mer mutant peptide and 0.5 µg Renilla luciferase construct to determine the transfection efficiency. Shown as bar charts is the mean of at least three different experiments ± SEM (*p<0.05). G. Clonogenic assay with the indicated malignant (LNCaP, DU145, PC3) and benign (BPH1, PNT2, RWPE1) prostate cell lines transfected with the vector control (black bars) and a vector expressing the 19-mer peptide (white bars). Shown are the mean ± SD of at least three different experiments performed with three different plasmid preparations (*p<0.05). H. Western blot analysis of cell lysates derived from the prostate cancer cells used for the colony forming assay with specific antibodies against GRP78 and β-actin.

PNT-2 cells = assay: Clonogenic assay; conditions: benign prostate cells, 19-mer vector vs control; at least three experiments
Protocol: as §1

LNCaP cells = assay: Clonogenic assay; conditions: 19-mer expressing vector vs vector control; at least three experiments
Protocol: as §1

DU145 cells = assay: Clonogenic assay; conditions: 19-mer expressing vector vs vector control; at least three experiments
Protocol: as §1

[1] = system: unfolded protein response in 22Rv.1 cells; assay: UPR modulation, Western blot / PCR in 22Rv.1 cells
Protocol: Unless otherwise stated, stable transfection was carried out in 22Rv.1 or BPH-1 cells with 10 µg of plasmid DNA using FuGene 6™ (Roche Diagnostics Mannheim, Germany) Stably transfected 22Rv.1 cells were selected with 0.8 mg/ml while BPH-1 cell clones were selected with 1.2 mg/ml G418. LNCaP, PC3, DU145, PNT-2 and RWPE-1 cell clones were selected with 1 mg/ml G418. Specific downregulation of GRP78 expression was achieved by transfecting siRNA-duplexes (GRP78∶5′-[…]-3′) twice in 72 h using HiPerfect™ (Qiagen Hilden, Germany). siRNA against GFP (5′-[…]-3′) was used as a control. Western blot analysis was performed as previously described.
Figure 3 The Bag-1 peptide modulates the UPR and sensitizes 22Rv.1 cells to ER-stress. A. UPR modulation upon Bag-1 peptide overexpression. Pooled clones of 22Rv.1 cells transfected with pcDNA3.1-HA-Bag-1 68 amino acid peptide or an empty expression vector were treated with 300 nM thapsigargin (TG) for the indicated time points. Cells were lysed and subjected to Western blot analysis using the indicated antibodies or phospho-specific antibodies. B. The Bag-1 peptide sensitizes 22Rv.1 cells to ER-stress induced apoptosis. Pooled clones of 22Rv.1 transfected with the Bag-1 peptide or the empty expression vector were treated with thapsigargin (TG) or glucose-starved (GS) for 24 h. The cells were lysed and subjected to Western blot analysis using anti-PARP and caspase 4 specific antibodies. Anti-HA antibody was used to detect the HA-Bag-1 peptide. […] C. […] Pooled clones of 22Rv.1 expressing HA-tagged Bag-1 peptide or an empty expression vector were transfected with GRP78/BiP siRNA or control GFP siRNA. The cells were lysed and Western blot was carried out with anti-PARP, anti-GRP78 and anti-HA antibodies. β-actin antibody was used to determine the level of protein loaded on the gel.
A. Real time PCR analysis of ATF6 gene expression following thapsigargin (300 nM) treatment for the indicated time points in 22Rv.1 cell clones with empty vector control (open bars) and peptide-expressing clones (filled bars). The RNA was extracted using PeqGold RNA pure (PeqLab, Germany) kit according to manufacturer’s instructions. For gene expression analysis, the following primers were used: Rib36 forward 5′-[…]-3′; reverse 5′-CCGGATATGAGGCAGCAG-3′; ATF6 forward 5′-[…]-3′; reverse 5′-[…]-3′. Each bar represents the mean of three independent experiments ± SEM. *p<0.05. B. Western blot analysis of ATF6 and its cleaved product (cATF6) in LNCaP cells stably expressing the empty vector control or the Bag-1 peptide. Anti-ATF6 specific antibody and an anti-HA specific antibody were used for the Western blot. β-actin antibody was used to determine equal loading control. Mouse monoclonal anti-ATF6 antibody was purchased from Imgenex (Hamburg, Germany), mouse monoclonal anti-HA antibody (HA.11 clone 16B12) was purchased from Covance (Munich, Germany) and anti-β-actin antibody was purchased from Abcam (Cambridge, UK). (TIF) Click here for additional data file.
Supplementary file pone.0045690.s004.tif: Figure S4 The Bag-1 peptide induces GCN2 phosphorylation. 22Rv.1 cells stably expressing the empty vector control or the Bag-1 peptide were treated with thapsigargin (300 nM) for 16 h and subjected to Western blot analysis using anti-phospho-GCN2, GCN2 and HA-specific antibodies. The filters used in this experiment for the GCN2 signals are the same filters used in Figure 3A. The HA-Bag-1 peptide and the β-actin signals are therefore identical to that of Figure 3A. (TIF) Click here for additional data file.

[2] = Bag-1 peptide expressing 22Rv.1 cells, thapsigargin 300 nM, 16 h
[3] = stable Bag-1 peptide expression, 22Rv.1, thapsigargin 300 nM
[4] = stable Bag-1 peptide expression, 22Rv.1, thapsigargin 300 nM, vs vector control

| Molecule | PC3 growth in clonogenic assay (PC3 cells) | PNT-2 growth in clonogenic assay (PNT-2 cells) | LNCaP growth in clonogenic assay (LNCaP cells) | DU145 growth in clonogenic assay (DU145 cells) | CHOP expression ([1]; Bag-1 peptide expressing 22Rv.1 cells, thapsigargin 300 nM) | GCN2 [1, 2] | GCN2 phosphorylation [1, 2] | ATF4 activation [1, 3] | eIF2α phosphorylation [1, 3] | thapsigargin-induced expression of GRP78/BiP [1, 3] | cleaved ATF6 [1, 4] | phosphorylation of PERK and IRE1 [1, 4] |
| --- | --- | --- | --- | --- | --- | --- | --- | --- | --- | --- | --- | --- |
| 19-mer: Bag-1L 202–220 (TPLSALGIQDGCRVMLIGK; not fully specified) | inhibited growth | not growth inhibited | inhibited growth | inhibited growth | – | – | – | – | – | – | – | – |
| B1 | – | – | – | – | increased expression of the pro-apoptotic factor CHOP | upregulated in the peptide expressing cells | enhanced phosphorylation of GCN2 | activation of the downstream target ATF4 | increase in eIF2α phosphorylation | inhibition of the thapsigargin-induced expression of GRP78/BiP | significant reduction of cleaved ATF6 | reduced ER stress-induced phosphorylation of PERK and IRE1 |
